Results reported in the supplement of paper PMC9942255.

The sequences below were run on Bacillus subtilis DB104 (SP-AmyQ fusion secretion) (assay: AmyQ secretion efficiency, weighted average sort bin (1 = best secretion, 10 = worst) (bin number (weighted average, 1-10)); higher = lower secretion efficiency).
Summary of the method: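 The secretion score was taken as the read-frequency-weighted mean bin number, normalised to beads per bin, with low-abundance sequences excluded. Bins came from large-particle flow cytometry sorting of occupied alginate beads (~65 nL, about 0.3 cells each, with fluorescein-starch) into 10 equally populated groups by green/red fluorescence ratio after about 13 h at room temperature and nile red staining. The cells were a B. subtilis DB104 library with mature AmyQ fused to designed signal peptides, integrated at amyE, and each bin's amplicons were Illumina-sequenced.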

Sequence	AmyQ secretion efficiency
MRGKSAVLLSLIMLIAGFLDEESFSFQM	5.97
MKNMSCKLVVSVTLFFSFLTIGPLAHEQNS	5.71
MKKVLMAFIICLSLILSVLAAPPSGAKCESV	3.94
MRFTKVVGFLSVLGLAAVFPLTAQREKA	5.37
MRSYIKVLTMCFLGLILFVPTYLADNS	7.74
MMTMLFHSTLIVLLFFSFFGVQPIHAKKQ	2.1
MKRRRRPMRLALGAALTIAPLSFASAEEN	5.86
MKKQIITATTAVVLGSTLFAGAASGQSI	2.03
MKKRITYSLLALLAVVAFAFFSIAGAKAAEA	4.27
MKKRLIGFLVLVPALIMSGITLGEANKK	6.8
MKKKLAAGLTASAIVGTTLVVTPAEAKRK	6.02
MLCVMMLLFSAIASFPVSWQAKDQ	6.99
MKIRKILLSSALSFGMLISAVPGLAAGT	3.97
MKKMNFSSNSIIVMLATALFLGLTPAGANAADL	4.32
MKRMIVRMTLPLLIVCLAFSSFSASARVASE	4.86
MKWCSICCAAVLLAGGAAQAEAV	3.57
MKLSVKIAGVLTVAAAAMTAKMYATDKGN	5.75
MPYLKRVLLLLVTGLFMSLFAVTATASAQTK	1.71
MFKKHTISLLIIFLLALTSAVLAKPIEAHTV	2.73
MKLAKRVSALTPSTTLAITEKAKEL	7.31
MRKKLKWLSFLLGFIILLFLFKYQFSPNDS	6.63
MRPVFPLILSAVLFLSCFSVSTFFGARQTEASASKR	2.65

Sequence	AmyQ secretion efficiency
MKRRRRKLLSTLLIGIMLLTFAPSAFAKQD	1.81
MPYLKRVLLLLVTGLFMSLFAVTATASGQTG	1.24
MPIKKKVMMCLAVTLVFGSMSSGGFKE	5.66
MNLRKIRRKKKKSLGMLVSAAPVLATSS	7.69
MLTKRLLLTIYIMLLGLIAWFPGAAQAEEK	2.22
MAIIIAIIAAVIVIAALITFNVTNASPG	7.21
MNKPTKLFSTLALAAGMTEDEAGGAGTIHAQQP	2.79
MKKRLIAPMLLSAASLAFFAMSGSAQAAAE	2.56
MKSKWMSGLLLVAVGFSFTQVMVHPGET	7.16
MRPVFPLILSAVLFLSCFFGARQTEASAEEE	2.93
MKLSVKIAGVLTVAAAAMTAKMYKTAKGN	7.2
MIAYFGKCLLLVTIMFLGVLFTAVVVIAGMQQANHG	5.06
MKKAKRVFLSVVLVTTVFLVKQQESVAQAKQL	3.28
MKRFLIGAGVAAVILFSITFSGWFIADHQTHSQEM	5.28
MKVLLSALLLLLFAFEPSASAKKL	1.92
MKRCKRLIVCSLAAILLLIPSVSFAADS	3.14
MMKKLFHSTLIVLLFFSFFGVQPEIHAKKQ	2.24
MTKKFTIMSAWFLPLVCVLLISGWLAPAASASAQTT	1.82
MKKWMITIAMRTLAGIALFVFISPLKSHKT	7.06
MRKKTKNRLISSVLSTVVISSLLFAPGAAGASSK	2.22
MKLWMRKTLVVLFTIVTFGLVSPPAALMCDKP	2.74
MKRLFMKASLVLFAVVFVFAVKGADAKAETH	2.52

Sequence	AmyQ secretion efficiency
MKKIVSILFMFGLVMGFSQFQPSTVFAASP	1.65
MKLAKRTSALTPSTTLAITAKAKEL	6.93
MKIRKILLSSALSFGMLEEDDPALAAGT	2.69
MRKKLKWLSFLLGFIILLFLFKYQASNNDS	7.34
MFLAKRVSALTPSTTLAITAKAKEL	7.34
MKKWMITIAMLILAGIALFVFISPLKRHKT	7.32
MKRLTLVCSIVFILFILFYDKDEASAKTA	1.77
MRFTKVVGFLSVLGLAATTTFIVFPLTAQAEKA	1.5
MRMLWRSKRLCGLALTLAPCAQAAEP	6.7
MRKVITCVMAASLTLGSLLPAGYASAKED	3.26
MRSKKLWISLLFALTLITFTMAFSNMSAQAAGK	3.27
MNLWMRKTLVVLFTIVTFGLVSPPAALMADKP	2.15
MKKKRKRLAAGLTASAIVGTTLVVTPAEAATI	2.55
MPYLKRVLLLLVTGLFMSLFAVTATLSAQTG	1.38
MNFKKTVVSALSISALALSVSGVASAHSD	2.93
MKSKGSIMACLILFSFTITTFISVETISAFSN	5.39
MKSKWMSGLLLVAVGFSFTQVMVHQGET	6.96
MKKVLMAFIICLSLILSVLAAPPSGSKAESV	3.67
MKKWMITIAMLILAGIALFVFISPPPFFTAVPSTVLKSHKT	6.23
MTKLKMLSMLTVMIASLFIFSSQCLAVQY	2.27
